How the values were obtained:
[1] = target: actin filaments (F-actin) of lily pollen tubes (lily (Lilium grandiflorum / Lilium longiflorum cv. Osnat)); test: cell-based or functional assay
[2] = target: actin filaments (F-actin) of lily pollen tubes

B1: Aspergillus niger B1 extracellular RNase (RNase B1) (protein)
chain: TIDTCSSDSPLSCQTDNEASCCFNSPGGSLLQTQFWDYDPSDGPSGSWTIHGLWPDNCDGTYQEYCDESREYSNITSILEAQNRTELLSYMKEYWPDYEGADEDESFWEHEWNKHGTCINTIEPSCYTDYYAQEEVGDFFQQVVDLFKTLDSYTALSDAGITPSEDATYKLSDIEDALAAIHDGYPPYVGCEDGALSQLYYYFNVKGSAIGGTYVASERLEDSNCKDSGIKYPPKYSSSKKIYGSSL
inhibition of lily pollen tube elongation, 1 uM enzymatically heat-inactivated RNase B1 (EI-RNase B1) [1]: 55% | actin filament distribution in pollen tubes (TRITC-phalloidin staining) [2]: in RNase-treated pollen tubes masses of F-actin were accumulated at the tip cell wall | lily pollen tube length in vitro, RNase B1 100 units/ml (16 ug/ml), 2 h (control about 300 um) [2]: reached only 160 µm in length | lily pollen tube length in vitro, autoclaved RNase B1 (control about 300 um) [2]: Boiling or autoclaving the RNase yielded pollen tubes of 130 and 170 µm in length, respectively | lily pollen tube length in vitro, boiled RNase B1 (control about 300 um) [2]: Boiling or autoclaving the RNase yielded pollen tubes of 130 and 170 µm in length, respectively

From US20080131419A1
